Changes are numbered by the printed parent chain. Names and notes keep the numbering of the source.

B1: translin‐associated factor‐X (TRAX), endogenous (natural protein, UniProt Q99598 1-290, looked up)
chain: MSNKEGSGGFRKRKHDNFPHNQRREGKDVNSSSPVMLAFKSFQQELDARHDKYERLVKLSRDITVESKRTIFLLHRITSAPDMEDILTESEIKLDGVRQKIFQVAQELSGEDMHQFHRAITTGLQEYVEAVSFQHFIKTRSLISMDEINKQLIFTTEDNGKENKTPSSDAQDKQFGTWRLRVTPVDYLLGVADLTGELMRMCINSVGNGDIDTPFEVSQFLRQVYDGFSFIGNTGPYEVSKKLYTLKQSLAKVENACYALKVRGSEIPKHMLADVFSVKTEMIDQEEGIS
notes: translin-associated factor X (TRAX), endogenous in human primary CD4+ T cells and in Jurkat cells; source: endogenous, human primary CD4+ T cell lysate; endogenous, Jurkat (Jurkat-vector) lysate
B2: recombinant TRAX (His‐tagged) (natural protein, UniProt Q99598 1-290, looked up)
chain: B1 chain
notes: translin-associated factor X (TRAX); source: Escherichia coli, His‐tagged recombinant protein
B3: FLAG‐tagged TRAX^(Q219A, Q223A) (natural protein, UniProt Q99598 1-290, looked up)
chain: B1 chain with Q219A, Q223A
notes: translin-associated factor X (TRAX) with Q219A and Q223A; also called mutTRAX‐FLAG; mutTRAX; source: Jurkat cells, lentivirus (Jurkat‐mutTRAX‐FLAG), in lysate
B4: adenosine receptor 2A (A2AR), endogenous (receptor, UniProt P29274 1-412, looked up)
chain: MPIMGSSVYITVELAIAVLAILGNVLVCWAVWLNSNLQNVTNYFVVSLAAADIAVGVLAIPFAITISTGFCAACHGCLFIACFVLVLTQSSIFSLLAIAIDRYIAIRIPLRYNGLVTGTRAKGIIAICWVLSFAIGLTPMLGWNNCGQPKEGKNHSQGCGEGQVACLFEDVVPMNYMVYFNFFACVLVPLLLMLGVYLRIFLAARRQLKQMESQPLPGERARSTLQKEVHAAKSLAIIVGLFALCWLPLHIINCFTFFCPDCSHAPLWLMYLAIVLSHTNSVVNPFIYAYRIREFRQTFRKIIRSHVLRQQEPFKAAGTSARVLAAHGSDGEQVSLRLNGHPPGVWANGSAPHPERRPNGYALGLVSGGSAQESQGNTGLPDVELLSHELKGVCPEPPGLDDPLAQDGAGVS
notes: adenosine receptor 2A (A2AR), endogenous in human primary CD4+ T cells and in Jurkat cells; also called A2a receptor; source: endogenous, human primary CD4+ T cell lysate; endogenous, Jurkat (Jurkat-vector and Jurkat-mutTRAX-FLAG) lysate

Test [1] has as its target B4. The test can be described thus: co-IP; Jurkat‐vector or Jurkat‐mutTRAX‐FLAG cells incubated with 30 µM GHCer or PBS at 37 °C for 1 h; immunoprecipitation with anti‐A2AR, anti‐TRAX or anti‐FLAG, western blot. To be noted: partners not purified. Background: In western blotting, separated proteins are transferred to a membrane and probed.
Test [2] deals with B4. The test can be described thus: co-IP; human primary CD4+ T cells incubated with 30 µM GHCer or PBS at 37 °C for 1 h; immunoprecipitation with anti‐A2AR or anti‐TRAX, western blot with anti‐TRAX or anti‐A2AR. To be noted: partners not purified.
The target of test [3] is T1, full‐length recombinant A2AR protein (A2AR‐His, fragment A) (UniProt P29274 1-412).
T1 construct: adenosine receptor 2A (A2AR), full-length (fragment A); the printed end of fragment F (aa 412) fits the human protein; captured on beads by an anti-His antibody; also called full‐length N‐His‐A2AR; A2AR‐full length; source: Escherichia coli, His‐tagged recombinant protein; not shown: His, N-terminal, kept
The test can be described thus: Luminex bead-based assay; A2AR‐His full length or fragments captured on Luminex beads conjugated with anti‐His antibody; TRAX in solution, detected by antibody and PE-conjugated antibody; with PBS, 30 µM GHCer or 30 µM GH‐biotin; PBS with 1% BSA, 37 °C, 60 min; signals normalised to full‐length A2AR/PBS/TRAX. Particulars: both partners purified.

For test [4], the target named is T2, A2AR fragment E (aa 291–393) (UniProt P29274 291-393).
T2 construct: adenosine receptor 2A (A2AR), C-terminal fragment E, aa 291–393; source: Escherichia coli, His‐tagged recombinant protein
The description is as above. Particulars: both partners purified.

Test [5] concerns the target T3, A2AR fragment F (aa 291–412) (UniProt P29274 291-412).
T3 construct: adenosine receptor 2A (A2AR), C-terminal fragment F, aa 291–412; source: Escherichia coli, His‐tagged recombinant protein
The test is described as above. To be noted: both partners purified.

In test [6] the target is B1. The test can be described thus: co-IP; Jurkat‐vector or Jurkat‐mutTRAX‐FLAG cells incubated with 30 µM GHCer or PBS at 37 °C for 1 h; immunoprecipitation with anti‐A2AR, anti‐TRAX or anti‐FLAG, western blot. Particulars: partners not purified.
In test [7] the target is B3. Described as above. Particulars: partners not purified.
In test [8] the target is B1. The test can be described thus: co-IP; human primary CD4+ T cells incubated with 30 µM GHCer or PBS at 37 °C for 1 h; immunoprecipitation with anti‐A2AR or anti‐TRAX, western blot with anti‐TRAX or anti‐A2AR. To be noted: partners not purified.

In the case of B1, the “fold TRAX co-precipitated with GHCer over PBS control” value in test [1] was 2.3 fold; in test [2], 2.1 fold.

With B2, the “fold binding signal with 30 µM GHCer over PBS control” value in test [3] was 1.6 fold. Further, the figures for the “fold binding signal with GHCer over fragment A without GHCer” value in test [3], in test [4] and in test [5] were 1.5 fold, 2.3 fold and 1.8 fold, respectively.

Turning to B3, in test [1], the “fold co-precipitated by anti‐A2AR with GHCer over PBS control” value is 1 fold.

As for B4, the “fold A2AR co-precipitated with GHCer over PBS control” value in test [6] turned out to be 2 fold; in test [8], 1.8 fold. For the same molecule, the “fold co-precipitated by anti‐FLAG with GHCer over PBS control” value in test [7] was 1.1 fold.

Values taken from PMC12279200, “Tumor‐Associated Glycan Exploits Adenosine Receptor 2A Signaling to Facilitate Immune Evasion” (Advanced Science, 2025).
